Experimental data taken from PMC10782944 (Science immunology, 2023).

Tests used:
Assay in all cases: SPR
GLB1 peptide/HLA-A*24:02 = GLB1 peptide/HLA-A*24:02 (Homo sapiens, HLA-A*24:02, strain)
ATG2A/HLA-A*24:02 = ATG2A/HLA-A*24:02 (Homo sapiens, HLA-A*24:02, strain)
[1] = molecular target: CNGB3 peptide/HLA-A*24:02 (Homo sapiens, HLA-A*24:02, strain)
PHOX2B/HLA-A*24:02/β2m = PHOX2B/HLA-A*24:02/β2m (Homo sapiens, HLA-A*24:02, strain)

binding result (GLB1 peptide/HLA-A*24:02): binds | Kd (ATG2A/HLA-A*24:02): 1000 nM | binding result [1]: binds | Kd (PHOX2B/HLA-A*24:02/β2m): 11 nM
B1: peptide-centric CAR (PC-CAR) 10LH, single-chain fragment variable (scFv) (scFv, V domains shown)
V domain 1: EVQLLESGGGLVQPGGSLRLSCAASGFTFDSYAMSWVRQAPGKGLEWVSAISGYGGSTYYADSVKGRFTISRDNSKNTLYLQMNSLRAEDTAVYYCAKYTYFLDAFDIWGQGTMVTVSS
V domain 2: QSVLTQPPSVSVSPGQTASITCSGDSLGNKYACWYQQKPGQSPVLVIYQDSKRPSGIPERFSGSNSGNTATLTISGTQAMDEADYYCQAWDSSRGYTVVFGTGTKVTVS
